The text below walks through data of patent publication EP2014310A2 (Dyax Corporation, dated 2009).

The target in assay [1] is T1, human KDR-Fc fusion (R&D Systems #357-KD-050) (human, UniProt P35968 20-764).
T1 construct: bought
The assay can be described thus: Biacore, KDR-Fc on CM5 chip, unlabeled peptide. (In general: In SPR one partner is held on a chip, and binding of the other changes the refractive index at the surface.)

In assay [2] the target is KDR on human umbilical vein endothelial cells (HUVECs) (human, UniProt P35968 20-1356). The assay can be described thus: cell-based or functional assay.
KDR on human umbilical vein endothelial cells (HUVECs), sequence (P35968 20-1356): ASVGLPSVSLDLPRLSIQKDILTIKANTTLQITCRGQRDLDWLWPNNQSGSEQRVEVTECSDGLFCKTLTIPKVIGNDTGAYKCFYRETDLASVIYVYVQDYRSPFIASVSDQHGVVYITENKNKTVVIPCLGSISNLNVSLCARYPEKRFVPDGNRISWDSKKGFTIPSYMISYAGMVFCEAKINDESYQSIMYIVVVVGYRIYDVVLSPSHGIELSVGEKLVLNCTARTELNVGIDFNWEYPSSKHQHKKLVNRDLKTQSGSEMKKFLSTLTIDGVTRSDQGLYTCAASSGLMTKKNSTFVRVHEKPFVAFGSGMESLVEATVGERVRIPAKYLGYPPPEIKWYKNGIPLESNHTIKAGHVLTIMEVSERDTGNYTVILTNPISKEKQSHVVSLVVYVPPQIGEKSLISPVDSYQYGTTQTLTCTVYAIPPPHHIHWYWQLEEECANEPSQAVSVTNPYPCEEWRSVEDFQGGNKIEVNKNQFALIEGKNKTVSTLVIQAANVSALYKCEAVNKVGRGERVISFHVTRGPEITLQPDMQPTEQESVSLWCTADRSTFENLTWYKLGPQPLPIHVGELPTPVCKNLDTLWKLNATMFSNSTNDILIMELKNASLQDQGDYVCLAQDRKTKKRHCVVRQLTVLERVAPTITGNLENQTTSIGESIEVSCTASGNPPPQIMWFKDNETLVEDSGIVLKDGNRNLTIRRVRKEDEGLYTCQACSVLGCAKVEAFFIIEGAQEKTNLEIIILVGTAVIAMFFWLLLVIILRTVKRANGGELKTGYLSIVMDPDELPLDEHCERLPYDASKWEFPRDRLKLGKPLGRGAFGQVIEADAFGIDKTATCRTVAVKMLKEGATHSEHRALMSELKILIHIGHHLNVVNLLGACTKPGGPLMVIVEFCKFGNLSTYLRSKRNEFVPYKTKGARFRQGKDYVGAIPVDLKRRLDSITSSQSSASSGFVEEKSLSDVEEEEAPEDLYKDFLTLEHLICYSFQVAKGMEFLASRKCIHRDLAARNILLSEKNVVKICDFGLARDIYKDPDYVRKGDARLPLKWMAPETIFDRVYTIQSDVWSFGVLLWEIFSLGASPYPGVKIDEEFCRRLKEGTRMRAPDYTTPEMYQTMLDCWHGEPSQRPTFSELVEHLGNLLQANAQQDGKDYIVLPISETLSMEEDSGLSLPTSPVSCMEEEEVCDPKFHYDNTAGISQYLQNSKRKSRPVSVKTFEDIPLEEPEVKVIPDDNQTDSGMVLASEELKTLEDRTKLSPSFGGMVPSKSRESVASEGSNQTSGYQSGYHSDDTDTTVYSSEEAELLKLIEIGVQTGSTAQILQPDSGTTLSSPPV
Assay [3] addresses T1, human KDR-Fc fusion (R&D Systems …). Briefly: fluorescence anisotropy, fluorescein-labeled peptide. (In general: Polarisation of emitted light reports the rotation of a fluorescent probe.)
The target of assay [4] is KDR on transiently KDR-transfected 293H cells (human) (UniProt P35968). The assay can be described thus: neutravidin-HRP complexes, KDR minus mock 293H cells.
KDR on transiently KDR-transfected 293H cells (human), sequence (P35968 20-1356): as above
Assay [5] addresses T1, human KDR-Fc fusion (R&D Systems …). The assay can be described thus: phage binding screen on KDR-Fc; class legend in paragraph 246.
For assay [6], the target named is T2, KDR/VEGF complex (KDR-Fc mixed or saturated with VEGF) (human, UniProt P35968 20-764; P15692 27-191).
T2 construct: anisotropy: two fold molar excess of VEGF mixed with KDR-Fc; Biacore: KDR-Fc chip saturated with VEGF; also called KDR:VEGF165 complex
T2 sequence (P35968 20-764, chain 1 of 2): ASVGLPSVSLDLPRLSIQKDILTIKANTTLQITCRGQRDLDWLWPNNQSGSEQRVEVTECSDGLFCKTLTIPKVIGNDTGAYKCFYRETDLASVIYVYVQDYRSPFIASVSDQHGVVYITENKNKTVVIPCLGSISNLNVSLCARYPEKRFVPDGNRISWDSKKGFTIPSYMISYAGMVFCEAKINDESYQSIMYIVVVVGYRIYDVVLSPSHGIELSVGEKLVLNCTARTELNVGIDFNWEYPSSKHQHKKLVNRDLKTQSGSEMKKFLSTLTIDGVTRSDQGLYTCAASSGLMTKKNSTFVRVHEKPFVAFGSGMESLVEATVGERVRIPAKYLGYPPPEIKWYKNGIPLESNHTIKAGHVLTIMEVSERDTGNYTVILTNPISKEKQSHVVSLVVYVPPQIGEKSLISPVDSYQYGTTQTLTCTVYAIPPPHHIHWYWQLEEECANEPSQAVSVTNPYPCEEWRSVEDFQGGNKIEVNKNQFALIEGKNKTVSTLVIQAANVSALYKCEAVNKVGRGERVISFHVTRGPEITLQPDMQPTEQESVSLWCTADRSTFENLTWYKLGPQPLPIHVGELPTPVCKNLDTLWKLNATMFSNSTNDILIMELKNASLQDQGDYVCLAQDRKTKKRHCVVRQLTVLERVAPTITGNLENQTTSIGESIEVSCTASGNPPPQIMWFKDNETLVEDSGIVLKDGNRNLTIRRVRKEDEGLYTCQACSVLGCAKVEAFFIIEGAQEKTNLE
T2 sequence (P15692 other isoform, or with tags, fused parts or gaps, chain 2 of 2): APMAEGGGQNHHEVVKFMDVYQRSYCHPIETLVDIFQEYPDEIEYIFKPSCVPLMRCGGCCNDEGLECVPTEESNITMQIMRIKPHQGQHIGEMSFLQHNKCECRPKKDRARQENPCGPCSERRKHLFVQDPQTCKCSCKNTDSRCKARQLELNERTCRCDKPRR
The assay can be described thus: fluorescence anisotropy, fluorescein-labeled peptide, KDR-Fc with two fold excess VEGF.

The target of assay [7] is VEGF165 (Peprotech #100-20) (UniProt P15692-4 27-191). The assay can be described thus: fluorescence anisotropy, fluorescein-labeled peptide.
VEGF165 (Peprotech #100-20), sequence (P15692 other isoform, or with tags, fused parts or gaps limits assumed): as the sequence (P15692 other isoform, or with tags, fused parts or gaps, chain 2 of 2) above
Assay [8] deals with T1, human KDR-Fc fusion (R&D Systems …). Briefly: phage binding screen on KDR-Fc; class legend in paragraph 246. The source holds these as a separate data set.
The target is the same in assay [9]. Described as above. The source holds these as a separate data set.

Where two headings read alike, the source gives them in different places. Bridge positions count the residues as written; N and C are the ends. Side chains are listed from the residue outwards. I, II: the chains in the order shown. * marks the point of attachment. Biotin = O=C1N[C@H]2[C@H](CS[C@H]2CCCCC(=O)*)N1; ivDde = CC(C)CC(=C1C(=O)CC(C)(C)CC1=O)*; AEEA = NCCOCCOCC(=O)O

T1 sequence (P35968 20-764): as the sequence (P35968 20-764, chain 1 of 2) above

A word on the Kd: it is the free concentration of one partner at which half of the binding sites on the other are occupied at equilibrium, for simple one-to-one binding. For Ac-AQDWYYDEILSMADQLRHAFLSGGGK-NH2 (not fully specified) [SEQ ID NO:310], the affinity in assay [1], expressed as Kd, was 50 nM.

With Ac-GDWWECK(ivDde)REEYRNTTWCAWADPGGGK-NH2 (disulfide 6-17 (inferred)) [Ac-GDWWECK(ivDde)REEYRNTTWCAWADPGGGK-NH2 (SEQ ID NO:366 having a blocked K)], in assay [2], the “VEGF-induced KDR phosphorylation in HUVECs” value is at least 50 % inhibition at 10 µM.

Ac-AQGDYVYWEIIELTGATDHTPPGGK-NH2 (not fully specified) [SEQ ID NO:307]: in assay [2], the “VEGF-induced KDR phosphorylation in HUVECs” value is at least 50 % inhibition at 10 µM. The same molecule came in with a Kd in [3] of 180 nM.

Turning to Ac-GDDHMCRSPDYQDHVFCMYWDPGGGK-NH2 (disulfide 6-17 (inferred); not fully specified) [SEQ ID NO:295], the Kd was 140 nM in assay [1] and 480 nM in assay [3].

For Ac-AQDWYYDEILSMADQLRHAFLSGGGGGK([AEEA-AEEA-Biotin])-NH2 (peptide, part only; not given: control peptide and neutravidin-HRP, not shown: large carriers, also: neutravidin-HRP complex with biotinylated control peptide (dimer)) [neutravidin-HRP complex of SEQ ID NO:356 and control peptide, dimer], in assay [4], the ratio of specific binding to that of monomer (Dimer) came to 2.3.

In the case of Ac-GDGSWCEMRQDVGKWNCFSDDPGGGK-NH2 (disulfide 6-17 (inferred); not fully specified) [SEQ ID NO:299], the Kd is 180 nM in assay [1] and 620 nM in [3].

For the molecule GITCDELGRCVHW [phage isolate GITCDELGRCVHW], the binding result in assay [5] is recorded as “binds”.

Turning to WIECNKDGKCWHY [phage isolate WIECNKDGKCWHY], the binding result in assay [5] was “binds”.

Turning to Ac-GDYPWCHELSDSVTRFCVPWDPGGGK-NH2 (disulfide 6-17 (inferred); not fully specified) [SEQ ID NO:293], the equilibrium dissociation constant (Kd) in assay [1] turned out to be 180 nM; in [3] it was 980 nM.

Take Ac-AQEPEGYAYWEVITLYHEEDGDGGK-NH2 (not fully specified) [SEQ ID NO:305]: in [2], the “VEGF-induced KDR phosphorylation in HUVECs” value was at least 50 % inhibition at 10 µM. Also, the Kd in assay [1] turned out to be 730 nM; in assay [3] it was 270 nM.

B1: SEQ ID NO:264 (peptide)
peptide: Ac-AGPKWCEEDWYYCMITGTGGGK-NH2
modifications: cysteine pairing not given here; also: C-terminal Lys fluorescein-labeled for some assays, unlabeled for others
B1: binding in assay [1] was put at a Kd of 27 nM.

B2: SEQ ID NO:324 (peptide)
peptide: Ac-AGGHPCKGMLPHTCWYEGTGGGK-NH2
modifications: disulfide 6-14 (inferred); not fully specified; also: C-terminal Lys fluorescein-labeled in some assay forms
For the molecule B2, the Kd in assay [6] came to 3300 nM. Moreover, in assay [7], the binding result is given as “no binding”.

As for WVECNHKGLCREY [phage isolate WVECNHKGLCREY], in assay [5], the binding result is recorded as “binds”.

In the case of WIQCNHQGQCFHG [phage isolate WIQCNHQGQCFHG], the binding result in assay [5] is recorded as “binds”.

With Ac-GDNWECGWSNMFQKEFCARPDPGGGK-NH2 (disulfide 6-17 (inferred); not fully specified) [SEQ ID NO:303], the results for the Kd in assay [1] and in [3] were 990 nM and 210 nM, respectively.

On to Ac-GSDHHCYLHNGQWICYPFAPGGGK-NH2 (disulfide 6-15 (inferred); not fully specified) [SEQ ID NO:314], for which the Kd was found to be 150 nM in assay [1] and 260 nM in [3].

Turning to Ac-AGIDFCKGMAPWLCADMGTGGGK-NH2 (disulfide 6-14 (inferred); not fully specified) [SEQ ID NO:311], the Kd in [1] was found to be 180 nM; in assay [3] it was 730 nM.

As for Ac-AGWIECYHPDGICYHFGTGGGK-NH2 (disulfide 6-13 (inferred); not fully specified) [SEQ ID NO:269], the “VEGF-induced KDR phosphorylation in HUVECs” value in assay [2] was at least 50 % inhibition at 10 µM. The Kd in assay [1] and in assay [3] was 320 nM each time.

Ac-AQDWYYDEILSMADQLRHAFLSGGGGGK([AEEA-AEEA-Biotin])-NH2 (peptide, part only; not given: neutravidin-HRP, not shown: large carriers, also: tetrameric complex with neutravidin-HRP) [tetrameric complex of biotinylated SEQ ID NO:356 (JJ spacer) with neutravidin-HRP]: the ratio of specific binding to that of monomer (Tetramer) in assay [4] was 16.

Regarding WYWCEFYGVCSEE [phage isolate WYWCEFYGVCSEE], in assay [5], the binding result is given as “binds”.

Take MPWCSEVTWGWCKLN [phage isolate MPWCSEVTWGWCKLN]: the binding result in assay [8] was “binds”.

Regarding RGPCSGQPWHLCYYQ [phage isolate RGPCSGQPWHLCYYQ], in assay [8], the binding result was “binds”.

For the molecule Ac-GDGWACAKWPWGGEICQPSDPGGGK-NH2 (disulfide 6-16 (inferred); not fully specified) [SEQ ID NO:300], the Kd worked out at 1500 nM in assay [1] and 1000 nM in assay [3].

In the case of IDFCKGMAPWLCADM [phage isolate IDFCKGMAPWLCADM], in [8], the binding result is “binds”.

Turning to Ac-AQAFPRFGGDDYWIQQYLRYTDGGK-NH2 (not fully specified) [SEQ ID NO:306], the “VEGF-induced KDR phosphorylation in HUVECs” value in assay [2] was at least 50 % inhibition at 10 µM. The figures for the Kd in assay [1] and in assay [3] were 250 nM and 530 nM, respectively.

In the case of Ac-AQRGDYQEQYWHQQLVEQLKLLGGK-NH2 (not fully specified) [SEQ ID NO:308], the Kd in assay [1] came out at 5300 nM; in assay [3], 310 nM.

Take Ac-AGWLECYAEFGHCYNFGTGGGK-NH2 (disulfide 6-13 (inferred); not fully specified) [SEQ ID NO:267]: the “VEGF-induced KDR phosphorylation in HUVECs” value in [2] is at least 50 % inhibition at 10 µM.

Turning to WYHDGLHNERKPPSHWIDNV [phage isolate WYHDGLHNERKPPSHWIDNV], the binding result in assay [9] is “binds”.

B3: dimer 25 (D25) (peptide)
peptide 1: Ac-AGPTWCEDDWYYCWLFGTGGGK-NH2
peptide 2: Ac-GDSRVCWEDSWGGEVCFRYDPGGGK-NH2
modifications: disulfide I:6-I:13, II:6-II:16 (inferred); not fully specified (some residues, bridges); printed as Ac-AGPTWCEDDWYYCWLFGTGGGK{Ac-GDSRVCWEDSWGGEVCFRYDPGGGK[JJ-Glut-NH(CH_2)4-(S)-CH(NH_2)C(=O)-]-NH_2}-NH_2; also: heterodimer, chain 2 C-terminal Lys joined to linker
Regarding B3, the “IC50, VEGF-induced migration of HUVECs” value in assay [2] is 5 nM.

On to PWTCWLEDHLACAML [phage isolate PWTCWLEDHLACAML], for which the binding result in assay [8] is listed as “binds”.

For the molecule GVECNHMGLCVSW [phage isolate GVECNHMGLCVSW], the binding result in assay [5] is reported as “binds”.

For the molecule Ac-AQDWYYDEILSMADQLRHAFLSGGGGGK([AEEA-AEEA-Biotin])-NH2 (peptide, part only; not given: control peptide and neutravidin-HRP, not shown: large carriers, also: neutravidin-HRP complex with biotinylated control peptide (trimer)) [neutravidin-HRP complex of SEQ ID NO:356 and control peptide, trimer], in [4], the ratio of specific binding to that of monomer (Trimer) is 5.7.

On to VCWEDSWGGEVCFRYDPGGGK [SEQ ID NO:337 monomeric free peptide (VCWEDSWGGEVCFRYDPGGGK)], for which the “IC50, receptor activation assay” value in assay [2] was determined as 1000 nM.

B4: dimer 17 (D17) (peptide)
peptide 1: AQDWYYDEILGRGGRGGRGGK
peptide 2: VCWEDSWGGEVCFRYDPGGGK
modifications: not fully specified; N-terminal acetyl; C-terminal Lys(JJ-Glut)-NH2; N-terminal acetyl; contains J (8-amino-3,6-dioxaoctanoyl); C-terminal Lys joined to linker K
In the case of B4, in assay [2], the “IC50, VEGF-induced migration of HUVECs” value was about 250 nM.

Consider Ac-GDPDTCTMWGDSGRWYCFPADPGGGK-NH2 (disulfide 6-17 (inferred); not fully specified) [SEQ ID NO:301], for which the “VEGF-induced KDR phosphorylation in HUVECs” value in assay [2] was at least 50 % inhibition at 10 µM. Also, the Kd in assay [1] was determined as 260 nM; in [3] it was 490 nM.
